Entries after “also recorded” stand apart in the source; their conditions may differ.
How the values were obtained:
neutrophils = experiment: Neutrophil migration into the peritoneum after intraperitoneal injection; format: in vivo, C57BL6 mice; settings: 50 μg intraperitoneal, 8 h following injection, vs GLI-2 and PBS controls
Description: (A). Purified neutrophils were placed in the upper chambers of a 24-well chemotaxis microchamber plate with pore size of 3 μM or 5 μM. Lower chambers contained RPMI medium with various concentrations of recombinant DEK, as indicated. The bar labeled “control” contained only media in the lower chamber. The bar labeled “DEK up” had DEK in the upper chamber and media in the lower chamber. […] (B). Groups of mice received intraperitoneal injections of either PBS or 50 μg of either LPS, recombinant DEK, or a recombinant protein control prepared in parallel to DEK in baculovirus (an isoform of human GLI-2). Twenty mice were tested in each of the four groups. Half of the mice in each group were sacrificed after 4 hours (white bars), and the other half at 8 hours (black bars) after intraperitoneal injection, and then subjected to peritoneal lavage. The bars represent the average number of neutrophils migrating into the peritoneum of each group of mice.
In order to confirm that DEK is a chemoattractant, an in vivo murine model was used. Four groups of twenty 4-6 week old male C57BL6 mice were injected intraperitoneally with 50 μg of DEK, 50 μg of a recombinant control protein also prepared in baculovirus (GLI-2) (See, e.g., Smith et al., J Virol 75, 2301-13 (2001)), 50 μg of LPS, or PBS alone.

circular SV-40 DNA = experiment: Topology assay with His-DEK and GST-ALY; format: biochemical; settings: in the presence of 1 U topoisomerase I
Description: 10 ng (0.003 pmol) of circular SV-40 DNA was incubated with 2, 4 or 8 pmol of HIS-DEK (DEK) or GST-ALY (ALY) or either 2 or 4 pmol HIS-DEK and 2, 4 or 8 pmol GST-ALY in the presence of 1 U topoisomerase I. As a control for the functionality of topoisomerase I, SV-40 DNA was incubated either with or without topo I in the absence of GST-ALY and DEK. After 1 h at 37° C., the samples were treated with Proteinase K, and the DNA was purified and analyzed by agarose gel electrophoresis (0.8% at 2V/cm) and SybrGold staining.

[1] = test system: purified neutrophils (PMN); experiment: In vitro migration assay with purified neutrophils; format: cell-based, human; settings: various concentrations of recombinant DEK in lower chamber; 79 nM vs control
Description: Purified neutrophils (PMN) were treated with IL-8 (50 nM), the CXCR2 small molecule inhibitor SB225002 (3 μM), DEK (79 nM), IL-8 plus SB225002, or DEK plus SB225002 for 5 min at room temperature before and then during the migration assay. After 1 h, the number of fluorescently labeled migrating cells in the lower chamber was determined at 485 nM/535 nm wavelengths by Tecan GENios (Phenix, Austria). […] The results are expressed as the average fold increase in the number of cells migrating toward DEK compared to control wells containing medium only. White blood cells were isolated from venous blood from healthy donors as described above, and were depleted of monocytes by adherence to plastic for 2 h as described in the Cell Preparation section. […] The cells were washed and resuspended at 1×10^6 cells/ml in serum-free RPMI medium, and 1×10^5 labeled cells in 100 μl were added to the upper chamber of a 24-well Transwell chemotaxis insert with pore size of 3 μm or 5 μm (Corning, N.Y.). The lower chambers contained serum-free RPMI medium alone, recombinant DEK made in baculovirus, or a deletion mutant of the β form of human GLI-2 (See, e.g., Smith et al., J Virol 75, 2301-13 (2001)) produced in baculovirus as the control protein. After 30 min to 1 h, the number of fluorescently labeled migrating cells in the lower chamber was determined at […] wavelength using a Tecan GENios plate-reader (Phenix, Austria). The results were expressed as the average fold increase of the number of cells migrating toward lower chambers containing DEK divided by the number of cells migrating toward the control wells (medium alone). Forty ml of venous blood was collected from healthy volunteers into a 50 ml sterile syringe containing a mixture of 7 ml 0.25 M Citrate (0.17 M NA Citrate and 0.083 M Citric Acid) and 6% Dextran in PBS buffer. The blood was incubated for 30 min at room temperature and the upper phase was collected and further separated by Ficoll as described above. The neutrophil fraction was collected and washed with HBSS buffer and then pelleted again. […]

MDM and HeLa cells = experiment: Uptake of recombinant DEK by cells; format: cell-based, human; settings: MDM (12-day) and HeLa cells
[2] = test system: Human Microvascular Endothelial Cells (HMVEC); experiment: HMVEC chemotaxis (cell migration assay); format: cell-based; settings: 3.5 μg purified recombinant DEK vs purification buffer control
Description: Cell migration assay (See, e.g., Koch et al., Arthritis & Rheumatism 44: 31-40, (2001)) was performed with either 3.5 μg of purified, recombinant DEK diluted in PBS, or with just the purification buffer diluted in PBS (control). Nine high-power fields were assayed per sample, and results expressed as the number of cells migrating per well. Error bars show the mean deviation of two separate experiments (*p=0.0249).

B1: DEK: full-length recombinant DEK protein produced in baculovirus (protein, UniProt P35659 1-375, looked up)
chain: MSASAPAAEGEGTPTQPASEKEPEMPGPREESEEEEDEDDEEEEEEEKEKSLIVEGKREKKKVERLTMQVSSLQREPFTIAQGKGQKLCEIERIHFFLSKKKTDELRNLHKLLYNRPGTVSSLKKNVGQFSGFPFEKGSVQYKKKEEMLKKFRNAMLKSICEVLDLERSGVNSELVKRILNFLMHPKPSGKPLPKSKKTCSKGSKKERNSSGMARKAKRTKCPEILSDESSSDEDEKKNKEESSDDEDKESEEEPPKKTAKREKPKQKATSKSKKSVKSANVKKADSSTTKKNQNSSKKESESEDSSDDEPLIKKLKKPPTDEELKETIKKLLASANLEEVTMKQICKKVYENYPTYDLTERKDFIKTTVKELIS
modifications: full-length
notes: full-length recombinant DEK protein produced in baculovirus
For B1, the “neutrophil migration into the peritoneum” value (neutrophils) was “significantly increased the infiltration of neutrophils; also recorded: significantly induces neutrophil migration”, the “induction of DNA supercoiling” value (circular SV-40 DNA) was “induced supercoiling” and the “neutrophil migration toward DEK” value [1] was “statistically significant; also recorded: specifically migrate toward DEK in a dose-dependent manner”. The uptake by cells (MDM and HeLa cells) was “can be taken up” and the endothelial cell chemotaxis [2] was “does attract endothelial cells”.
